Measured values taken from patent publication US20250027068.

Biological target: pooled human IgG

Protein	Enzyme Activity Endpoint Assay (purified): Fab'2 [ng/µL]	Enzyme Activity Endpoint Assay (purified): Fc [ng/µL]	Enzyme Activity Endpoint Assay (purified): IgG [ng/µL]	Enzyme Activity Endpoint Assay (purified): scIgG [ng/µL]	Enzyme Activity Endpoint Assay: Fab′2 [ng/µL]	Enzyme Activity Endpoint Assay: Fc [ng/µL]	Enzyme Activity Endpoint Assay: IgG [ng/µL]	Enzyme Activity Endpoint Assay: scIgG [ng/µL]
PRT-242 (protein) MVTSVWTKGVTPPANFTQGEDVFHAPYVANQGWYDITKTFNGKDDLLCGAATAGNMLHWWFDQNKDQIKRYLEEHPEKQKINFNGEQMFDVKEAIDTKNHQLDSKLFDYFKEKAFPNLSTKHLGVFPDHVIDMFINGYRLSLLNHGPTPVKEGSKDPRGGIFDAVFTRGDQSKLLTSRHDFKEKNLKEISDLIKKELTEGKALGLSHTYANVRINHVINLWGADFDSNGNLKAIYVTDSDSNPSIGMKKYFVGVNSSGKVAISAKEIKEDNIGAQVLGLFTLSTGQDSWNQTN	1030	418	0	0				
PRT-321 (protein) MTITSVWTKGVTPPTPEDFRENNEDVLHAPYVANQGWYDITKTFDGKDNLLCGAATAGNMLHWWFDQNKEEIERYLKKHPEKQKIIFGNQELFDVKAAIDTKDSQTNSKLFDYFRDKAFPNLSARQLGVMPDLVLDMFINGYYLNLPKTQSTDVNRPYQDKDKRGGIFDAVFTRGDQTTLLTARHDLKNKGLNEISDLIKQELTEGKALALSHTYANVRINHVINLWGADFDAEGNLIAIYVTDSDANASIGMKKYAVGVNANGKVAISAKKIEGDNIGAQVLGLFTLSTGQDQWQKLS	469	337	139	214				
PRT-329 (protein) MTITSVWTKGVTPPTPEDFRENNEDVLHAPYVANQGWYDITKTFDGKDNLLCGAATAGNMLHWWFDQNKEEIERYLKKHPEKQKIIFNNQELFDVKAAIDTKDSQTNSKLFNYFRDKAFPGLSARQLGVFPDLVLDMFINGYYLNLGKTQSTDVNRPYQDKDKRGGIFDAVFTRGVQTTLLTARHDLKNKGLNEISDLIKQELTEGKALALSHTYANVRINHVINLWGADFDAEGNLIAIYVTDSDANASIGMKKYFVGRNANGKVAISAKKIEGDNIGAQVLGLFTLSLGQDIWQKLS	928	406	0	0				
PRT-250 (protein) MVTSVWTKGVTPPTNFTYGEDVLHAPYVANQGWYDITKLFNGKDDLLCGAATAGNMLHWWFDQNKEQIENYLKKHPEKQKINFNGEQMFDVKEAIDTKDSQLDSKLFDYFKEKAFPNLSTKHLGVFPDHVIDMFINGYRLSLLNHGPTPVKRGSKDPRGGIFDAVFTRGDQSKLLTNRHDFKEKTLKEISDLIKQELTEGKALGISHTYANGRINHVINLWGADFDAEGNLEAIYVTDSDSNPSIGMKKYFVGVNSSGKVAISAKEIEEDNIGAQVLGLFTLSTGQDIWNQTN	313	310	86	454				
PRT-266 (protein) MVTSVWTKGVTPPTDFIYGEDVLHAPYKAGQGWYDITKTFNGKDDLLCGAATAGNMLHWWFDQNKEQIENYLKKHPEKQKINFNGEQMFDVKEAIDTKDSQLDSKLFEYFKEKAFPNLSTKHLGVFPDHVIDMFINGYRLSLLNHGPTPVKRGSKDPRGGIFDAVFTRGDQSKLLTNRHDLKNKTLKEISDLIKQELTEGKALGISHTYANVRINHVINLWGADFDAEGNLEAIYVTDSDSNASIGMKKYFVGVNSSGKVAISAKEIEEDNIGAQVLGLFTLSTGQDIWNQTN	698	401	0	0				
PRT-258 (protein) MVTSVWTKGVTPPTNFTYGEDVLHAPYVANQGWYDITKLFNGKDDLLCGAATAGNMLHWWFDQNKEQIENYLKKHPEKQKINFNGEQMFDVKEAIDTKDSQLDSKLFEYFLEKAFPYLSTKHLGVFPDHVIDMFINGYRLSLTNHGPTPVKRGSKDPRGGIFDAVFTRGDQSKLLTNRHDFKEKTLKEISDLIKQELTEGKALGISHTYANVRINHVINLWGADFDAEGNLEAIAVTDSDSNASIGMKKYFVGVNSSGKVAISAKEIEEDNIGAQVLGLFTLSTGQDIWNQTN	762	425	0	0				
PRT-290 (protein) MVTSVWTKGVTPPADFTQGEDVFHAPYVANQGWYDITKTFNGKDDLLCGAATAGNMLHWWFDQNKEYIEAYLKKHPEKQKIMFGDQELLDVRKAINTKGSQKNSELFNYFRDKAFPNLSARRLGVMPDLVLDMFINGYYLNVTKTQTTDVNRTYQEKDKRGGIFDAVFTRGDQSKLLTSRHDFKEKGLKEISDLIKQELTEGKALGLSHTYANVRIGHVINLWGADFDSDGNLKAIYVTDSDSNASIGMKKYFVGVNSSGKVAISAKEIKEDNIGAQVLGLFTLSTGQDIWNQTN	191	151	179	0				
PRT-282 (protein) MVTSVWTKGVTPPAKFTQGEDVFHAPYVANQGWYDITKTFNGKDDLLCGAATAGNMLHWWFDQNKEKIEAYLKKHPDKQKIMFGDQELLDVRKVINTKGDQTNSELFNYFRDKAFPNLSARRIGVMPDLVLDMFINGYYLNVYKTQTTDVNRTYQEKDRRGGIFDAVFTRGDQSKLLTSRHDFKEKNLKEISDLIKKELTEGKALGLSHTYANVRLNHVINLWGADFDSNGNLKAIYVTDSDSNASIGMKKYFVGVNSSGKVAISAKEIKEDNIGAQVLGLFTLSTGQDSWNQTN	69	150	34	413				
PRT-274 (protein) MVTSVWTKGVTPPTDFIYGEDVLHAPYKAGQGWYDITKTFNGKDNLLCGAATAGNMLHWWFDQNKEQIENYLKKHPEKQKIIFNNQELFDLKAAIDTKDSQLDSKLFDYFKEKAFPNLSTKHLGVFPDHVIDMFINGYRLSLLNHGPTPVKRGSKDKRGGIFDAVFTRGVQSKLLTNRHDLKNKTLKEISDLIKQELTEGKALGISHTYANVRINHVINLWGADFDAEGNLEAIYVTDSDTNPSIGMKKYFVGVNSSGKVAISAKEIEEDNIGAQVLGLFTLSTGQDIWNQTN	1040	425	0	0				
PRT-24 (protein) MANQEIRYSEVTPYHVTSVWTKGVTPPANFTQGEDVFHAPYVANQGWYDITKTFNGKDDLLCGAATAGNMLHWWFDQNKDQIERYLKEHPEKQKINFNGEQMFDVKEAIDTKDSQTDSKLFEYFKEKAFPYLSTKHLGVFPDHVLDMFINGYRLSLTNHGPTPVKEGSKDPRGGIFDAVFTRGDQSKLLTSRHDFKEKTLKEISDLIKKELTEGKALGLSHTYANVRINHVINLWGADFDSNGNLKAIYVTDSDSNASIGMKKYFVGVNSAGKVAISAKEIKEDNIGAQVLGLFTLSTGQDIWNQTN					52	131	18	16
